What was measured:
[1] = target: HA-tagged C96Y mutant insulin 2 (UniProt P01326)
[2] = target: HA-tagged wild-type insulin 2 (UniProt P01326)

## HRD1 (from plasmid HRD1-pCMVSPORT6)
[1]
  ubiquitination of insulin-2 (IP with anti-HA, immunoblot with anti-Flag for Flag-ubiquitin): did increase that of C96Y insulin-2
[2]
  ubiquitination of insulin-2 (IP with anti-HA, immunoblot with anti-Flag for Flag-ubiquitin): HRD1 expression did not increase the ubiquitination of wild-type insulin-2

From patent US20070202544
